Here are results for six substances from article PMC10008561.

In experiment [1] the target is human KOR D155A (human) (UniProt P41145).
Experiment [2] addresses human KOR R257A (human) (UniProt P41145).
Experiment [3] concerns the target human KOR R170A (human) (UniProt P41145).
Experiment [4] addresses human KOR L253A (human) (UniProt P41145).

Some results are limits rather than exact numbers.

Chain of Gα gustducin fused with Renilla luciferase (Gα-RLuc8) (A8MTJ3 whole entry, the tested form may be a part): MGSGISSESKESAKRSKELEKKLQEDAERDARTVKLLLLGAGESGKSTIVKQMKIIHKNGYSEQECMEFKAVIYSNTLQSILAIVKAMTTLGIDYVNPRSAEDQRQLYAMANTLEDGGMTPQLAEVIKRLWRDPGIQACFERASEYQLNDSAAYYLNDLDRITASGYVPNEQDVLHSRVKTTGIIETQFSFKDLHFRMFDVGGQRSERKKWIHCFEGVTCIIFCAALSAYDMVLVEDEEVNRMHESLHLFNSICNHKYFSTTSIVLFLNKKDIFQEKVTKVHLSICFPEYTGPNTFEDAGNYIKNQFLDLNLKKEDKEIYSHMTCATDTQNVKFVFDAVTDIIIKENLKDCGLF
Chain of GαoA fused with Renilla luciferase (Gα-RLuc8) (P09471 whole entry, the tested form may be a part): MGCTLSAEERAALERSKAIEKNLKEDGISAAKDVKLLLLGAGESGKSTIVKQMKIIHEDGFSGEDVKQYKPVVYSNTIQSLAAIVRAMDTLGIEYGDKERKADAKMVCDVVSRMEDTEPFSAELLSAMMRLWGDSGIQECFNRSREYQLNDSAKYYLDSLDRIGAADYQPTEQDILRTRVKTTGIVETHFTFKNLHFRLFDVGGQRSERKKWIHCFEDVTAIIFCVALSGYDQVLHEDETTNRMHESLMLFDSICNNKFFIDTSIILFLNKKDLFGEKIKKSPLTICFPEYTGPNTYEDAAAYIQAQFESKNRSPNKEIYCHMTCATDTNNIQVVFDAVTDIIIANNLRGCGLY
Chain of GαoB fused with Renilla luciferase (Gα-RLuc8) (P09471 other isoform, or with tags, fused parts or gaps): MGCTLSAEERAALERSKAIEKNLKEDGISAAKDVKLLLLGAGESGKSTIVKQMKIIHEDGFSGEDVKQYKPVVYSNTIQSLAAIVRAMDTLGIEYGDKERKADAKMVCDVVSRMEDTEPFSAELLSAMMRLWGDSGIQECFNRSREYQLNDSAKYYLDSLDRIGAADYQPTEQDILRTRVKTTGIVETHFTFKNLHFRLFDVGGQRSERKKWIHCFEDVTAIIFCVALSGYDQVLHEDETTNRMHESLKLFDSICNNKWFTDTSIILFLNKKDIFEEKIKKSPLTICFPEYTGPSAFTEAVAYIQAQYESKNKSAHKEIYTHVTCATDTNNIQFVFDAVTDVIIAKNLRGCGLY
Chain of Gαz fused with Renilla luciferase (Gα-RLuc8) (P19086 whole entry, the tested form may be a part): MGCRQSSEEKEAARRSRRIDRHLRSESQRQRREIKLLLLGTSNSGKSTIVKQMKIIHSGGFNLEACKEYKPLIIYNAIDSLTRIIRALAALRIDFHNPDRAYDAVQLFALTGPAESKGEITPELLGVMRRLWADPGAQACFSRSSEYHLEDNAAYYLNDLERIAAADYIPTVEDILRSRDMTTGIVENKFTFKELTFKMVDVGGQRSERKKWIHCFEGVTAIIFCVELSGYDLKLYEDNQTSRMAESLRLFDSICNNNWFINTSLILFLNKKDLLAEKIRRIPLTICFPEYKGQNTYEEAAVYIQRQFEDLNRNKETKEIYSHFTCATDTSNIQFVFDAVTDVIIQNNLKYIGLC
Chain of Gαi3 fused with Renilla luciferase (Gα-RLuc8) (P08754 whole entry, the tested form may be a part): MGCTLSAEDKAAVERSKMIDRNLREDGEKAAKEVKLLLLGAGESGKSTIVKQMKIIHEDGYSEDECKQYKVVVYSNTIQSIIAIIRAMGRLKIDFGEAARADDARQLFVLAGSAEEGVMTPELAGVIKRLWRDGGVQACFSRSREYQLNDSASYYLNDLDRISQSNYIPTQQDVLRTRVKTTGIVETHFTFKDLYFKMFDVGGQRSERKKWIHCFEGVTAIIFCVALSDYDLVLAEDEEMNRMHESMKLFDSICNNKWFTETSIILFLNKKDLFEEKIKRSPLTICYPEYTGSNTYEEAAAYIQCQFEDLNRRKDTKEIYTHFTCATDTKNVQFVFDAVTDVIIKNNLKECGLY
Chain of Gαi2 fused with Renilla luciferase (Gα-RLuc8) (P04899 whole entry, the tested form may be a part): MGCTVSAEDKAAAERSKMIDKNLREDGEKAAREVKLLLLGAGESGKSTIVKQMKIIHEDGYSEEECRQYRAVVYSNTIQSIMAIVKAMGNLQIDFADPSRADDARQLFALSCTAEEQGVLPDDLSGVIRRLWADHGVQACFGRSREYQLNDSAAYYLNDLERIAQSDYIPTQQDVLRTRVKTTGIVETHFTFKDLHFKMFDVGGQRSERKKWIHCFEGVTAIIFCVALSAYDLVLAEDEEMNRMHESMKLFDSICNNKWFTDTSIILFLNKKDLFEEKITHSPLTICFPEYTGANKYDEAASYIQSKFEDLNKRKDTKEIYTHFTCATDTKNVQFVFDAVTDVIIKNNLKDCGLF

For “Gα gustducin fused with Renilla luciferase (Gα-RLuc8) (from UniProt A8MTJ3 1-354) (natural protein)”, the values for the BRET2 G protein activation (TRUPATH); fold decrease of the potency of nalfurafine against wild-type KOR in experiment [1] and in experiment [3] were < 10 fold and 10 fold, respectively. In addition, the BRET2 G protein activation (TRUPATH) with nalfurafine; fold decrease against wild-type KOR in experiment [2] and in experiment [4] was 10 fold each time.

Consider “Gαi2 fused with Renilla luciferase (Gα-RLuc8) (from UniProt P04899 1-355) (natural protein)”, for which the BRET2 G protein activation (TRUPATH); fold decrease of the potency of nalfurafine against wild-type KOR in experiment [1] was < 10 fold; in experiment [3], 100 fold. The BRET2 G protein activation (TRUPATH) with nalfurafine; fold decrease against wild-type KOR in experiment [2] and in experiment [4] was 100 fold each time.

Take “Gαi3 fused with Renilla luciferase (Gα-RLuc8) (from UniProt P08754 1-354) (natural protein)”: the BRET2 G protein activation (TRUPATH); fold decrease of the potency of nalfurafine against wild-type KOR in experiment [1] is < 10 fold; in experiment [3], 100 fold. The BRET2 G protein activation (TRUPATH) with nalfurafine; fold decrease against wild-type KOR in experiment [2] and in experiment [4] was 100 fold in each case.

As for “GαoA fused with Renilla luciferase (Gα-RLuc8) (from UniProt P09471 1-354) (natural protein)”, the BRET2 G protein activation (TRUPATH); fold decrease of the potency of nalfurafine against wild-type KOR was < 10 fold in experiment [1] and 10 fold in experiment [3]. The BRET2 G protein activation (TRUPATH) with nalfurafine; fold decrease against wild-type KOR in experiment [2] and in experiment [4] was 10 fold throughout.

With “GαoB fused with Renilla luciferase (Gα-RLuc8) (from UniProt P09471-2 1-354) (natural protein)”, the BRET2 G protein activation (TRUPATH); fold decrease of the potency of nalfurafine against wild-type KOR in experiment [1] is < 10 fold; in experiment [3], 10 fold. Besides, the BRET2 G protein activation (TRUPATH) with nalfurafine; fold decrease against wild-type KOR in experiment [2] and in experiment [4] was 10 fold throughout.

With “Gαz fused with Renilla luciferase (Gα-RLuc8) (from UniProt P19086 1-355) (natural protein)”, the BRET2 G protein activation (TRUPATH); fold decrease of the potency of nalfurafine against wild-type KOR was < 10 fold in experiment [1] and 10 fold in experiment [3]. The BRET2 G protein activation (TRUPATH) with nalfurafine; fold decrease against wild-type KOR in experiment [2] and in experiment [4] was 10 fold throughout.
